Measured values reported in article PMC5703881.

Assays:
Assay in all cases: SPR
Settings in all cases: Bead assay: PBS with 1% BSA, antibody 0.2 or 2 ug/ml, 1 h, 22 C; SPR conditions not in the material
[1] = tested on: 71F12GL-SFH (human)
[2] = tested on: 71F12GL-SF (human)
[3] = tested on: 72H11 IgG (human)
[4] = tested on: 71F12 GL (germline-reverted) (human)

GGGGGGGGT [9-mer G8T]
fold reduction in affinity (fold lower affinity than for GGGGGGTTT) [1]: 150

GGGGGGTTT [9-mer G6T3]
fold reduction in affinity (fold lower affinity than 71F12GL-SFH) [2]: 30

TAATACGACTCACTATAGGG (double strand) [biotinylated 20-bp dsDNA (Fig. 4A)]
Kd [3]: 400 nM

TTTTT [5-mer T5]
fold reduction in affinity (fold lower affinity than 71F12) [4]: 50
